Measured values published in PMC9482650, “Quantitative fragmentomics allow affinity mapping of interactomes” (Nature Communications, 2022).

B1: SCN5A, Q14524 (peptide)
chain: SPDRDRESIV

biological target: T1, MPDZ_12, O75970; assay: holdup assay; set-up: key: below the threshold = too weak to quantify, mostly under pKd 3.1 to 4; settings: plain residues with an end cap or a label only (N-terminal biotin on a linker: ado-ado)
T1 sequence (O75970 1857-1958, limits assumed, looked up): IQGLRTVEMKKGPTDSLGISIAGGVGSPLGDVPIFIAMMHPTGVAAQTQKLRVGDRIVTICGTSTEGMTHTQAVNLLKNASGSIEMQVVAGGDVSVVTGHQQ

| Binder | pKd |
| --- | --- |
| B1 | below the threshold |

biological target: Inadl_3, Q8NI35; assay: holdup assay; set-up: key: below the threshold = too weak to quantify, mostly under pKd 3.1 to 4; settings: plain residues with an end cap or a label only (N-terminal biotin on a linker: ado-ado)
Sequence (Q8NI35 359-469): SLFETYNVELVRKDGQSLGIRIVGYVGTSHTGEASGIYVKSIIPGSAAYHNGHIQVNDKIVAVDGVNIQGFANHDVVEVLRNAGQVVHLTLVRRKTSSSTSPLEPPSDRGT

| Binder | pKd |
| --- | --- |
| B1 | 3.56 |

biological target: DLG4_2, P78352; assay: holdup assay; set-up: key: below the threshold = too weak to quantify, mostly under pKd 3.1 to 4; settings: plain residues with an end cap or a label only (N-terminal biotin on a linker: ado-ado)
Sequence (P78352 155-259): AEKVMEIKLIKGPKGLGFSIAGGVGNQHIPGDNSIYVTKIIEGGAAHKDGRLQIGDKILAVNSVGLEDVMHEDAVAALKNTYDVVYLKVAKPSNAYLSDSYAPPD

| Binder | pKd |
| --- | --- |
| B1 | 4.73 |

biological target: PTPN3, P26045; assay: holdup assay; set-up: key: below the threshold = too weak to quantify, mostly under pKd 3.1 to 4; settings: plain residues with an end cap or a label only (N-terminal biotin on a linker: ado-ado)
Sequence (P26045 505-587): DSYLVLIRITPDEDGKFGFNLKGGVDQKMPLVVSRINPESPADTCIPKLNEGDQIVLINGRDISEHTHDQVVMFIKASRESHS

| Binder | pKd |
| --- | --- |
| B1 | 4.78 |

biological target: T2, RAPGEF6, Q8TEU7; assay: holdup assay; set-up: key: below the threshold = too weak to quantify, mostly under pKd 3.1 to 4; settings: plain residues with an end cap or a label only (N-terminal biotin on a linker: ado-ado)
T2 sequence (Q8TEU7 525-625, limits assumed, looked up): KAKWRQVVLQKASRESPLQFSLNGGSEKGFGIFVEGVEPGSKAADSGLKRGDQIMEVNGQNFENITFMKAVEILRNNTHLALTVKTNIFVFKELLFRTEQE

| Binder | pKd |
| --- | --- |
| B1 | below the threshold |

biological target: T3, APBA2_2, Q99767; assay: holdup assay; set-up: key: below the threshold = too weak to quantify, mostly under pKd 3.1 to 4; settings: plain residues with an end cap or a label only (N-terminal biotin on a linker: ado-ado)
T3 sequence (Q99767 654-744, limits assumed, looked up): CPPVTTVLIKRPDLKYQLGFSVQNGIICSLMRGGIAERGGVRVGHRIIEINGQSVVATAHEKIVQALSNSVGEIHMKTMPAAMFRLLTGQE

| Binder | pKd |
| --- | --- |
| B1 | below the threshold |

biological target: T4, GRIP1_5, Q9Y3R0; assay: holdup assay; set-up: key: below the threshold = too weak to quantify, mostly under pKd 3.1 to 4; settings: plain residues with an end cap or a label only (N-terminal biotin on a linker: ado-ado)
T4 sequence (Q9Y3R0 568-668, limits assumed, looked up): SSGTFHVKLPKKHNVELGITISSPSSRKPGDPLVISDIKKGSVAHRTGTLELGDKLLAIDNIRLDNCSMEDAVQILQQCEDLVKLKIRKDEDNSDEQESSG

| Binder | pKd |
| --- | --- |
| B1 | below the threshold |

biological target: DLG4_3, P78352; assay: holdup assay; set-up: key: below the threshold = too weak to quantify, mostly under pKd 3.1 to 4; settings: plain residues with an end cap or a label only (N-terminal biotin on a linker: ado-ado)
Sequence (P78352 306-403): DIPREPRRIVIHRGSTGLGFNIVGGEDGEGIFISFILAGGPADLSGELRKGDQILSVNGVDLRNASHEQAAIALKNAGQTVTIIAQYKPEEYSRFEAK

| Binder | pKd |
| --- | --- |
| B1 | below the threshold |

biological target: DLG1_1, Q12959; assay: holdup assay; set-up: key: below the threshold = too weak to quantify, mostly under pKd 3.1 to 4; settings: plain residues with an end cap or a label only (N-terminal biotin on a linker: ado-ado)

| Binder | pKd |
| --- | --- |
| B1 | 4.28 |

biological target: T5, SHANK1, Q9Y566; assay: holdup assay; set-up: key: below the threshold = too weak to quantify, mostly under pKd 3.1 to 4; settings: plain residues with an end cap or a label only (N-terminal biotin on a linker: ado-ado)
T5 sequence (Q9Y566 658-767, limits assumed, looked up): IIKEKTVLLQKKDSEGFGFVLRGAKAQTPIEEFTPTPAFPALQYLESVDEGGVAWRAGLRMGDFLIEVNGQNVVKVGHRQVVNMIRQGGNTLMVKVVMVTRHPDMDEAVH

| Binder | pKd |
| --- | --- |
| B1 | below the threshold |

biological target: PDZRN4_1, Q6ZMN7; assay: holdup assay; set-up: key: below the threshold = too weak to quantify, mostly under pKd 3.1 to 4; settings: plain residues with an end cap or a label only (N-terminal biotin on a linker: ado-ado)
Sequence (Q6ZMN7 213-318): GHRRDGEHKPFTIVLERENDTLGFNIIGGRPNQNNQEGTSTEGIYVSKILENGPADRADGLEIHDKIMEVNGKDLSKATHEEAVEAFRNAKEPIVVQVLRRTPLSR

| Binder | pKd |
| --- | --- |
| B1 | 3.95 |

biological target: LNX1_1, Q8TBB1; assay: holdup assay; set-up: key: below the threshold = too weak to quantify, mostly under pKd 3.1 to 4; settings: plain residues with an end cap or a label only (N-terminal biotin on a linker: ado-ado)
Sequence (Q8TBB1 261-371): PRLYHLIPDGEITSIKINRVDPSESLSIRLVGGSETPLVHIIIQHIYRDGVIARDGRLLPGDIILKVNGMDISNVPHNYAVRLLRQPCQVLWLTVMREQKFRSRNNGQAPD

| Binder | pKd |
| --- | --- |
| B1 | 3.88 |

biological target: LNX1_2, Q8TBB1; assay: holdup assay; set-up: key: below the threshold = too weak to quantify, mostly under pKd 3.1 to 4; settings: plain residues with an end cap or a label only (N-terminal biotin on a linker: ado-ado)
Sequence (Q8TBB1 371-470): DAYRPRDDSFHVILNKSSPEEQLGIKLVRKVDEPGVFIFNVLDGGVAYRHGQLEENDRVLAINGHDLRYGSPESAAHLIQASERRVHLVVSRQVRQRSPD

| Binder | pKd |
| --- | --- |
| B1 | below the threshold |

biological target: FRMPD4, Q14CM0; assay: holdup assay; set-up: key: below the threshold = too weak to quantify, mostly under pKd 3.1 to 4; settings: plain residues with an end cap or a label only (N-terminal biotin on a linker: ado-ado)
Sequence (Q14CM0 67-160): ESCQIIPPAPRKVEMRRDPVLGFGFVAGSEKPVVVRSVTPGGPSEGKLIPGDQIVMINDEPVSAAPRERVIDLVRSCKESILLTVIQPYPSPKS

| Binder | pKd |
| --- | --- |
| B1 | below the threshold |

biological target: LIMK2, P53671; assay: holdup assay; set-up: key: below the threshold = too weak to quantify, mostly under pKd 3.1 to 4; settings: plain residues with an end cap or a label only (N-terminal biotin on a linker: ado-ado)
Sequence (P53671 143-248): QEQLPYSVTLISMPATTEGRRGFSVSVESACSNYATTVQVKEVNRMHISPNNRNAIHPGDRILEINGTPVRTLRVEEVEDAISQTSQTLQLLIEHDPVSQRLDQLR

| Binder | pKd |
| --- | --- |
| B1 | below the threshold |

biological target: T6, APBA3_1, O96018; assay: holdup assay; set-up: key: below the threshold = too weak to quantify, mostly under pKd 3.1 to 4; settings: plain residues with an end cap or a label only (N-terminal biotin on a linker: ado-ado)
T6 sequence (O96018 389-490, limits assumed, looked up): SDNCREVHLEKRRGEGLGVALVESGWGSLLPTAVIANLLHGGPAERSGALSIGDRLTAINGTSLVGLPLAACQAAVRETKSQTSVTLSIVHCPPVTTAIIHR

| Binder | pKd |
| --- | --- |
| B1 | below the threshold |

biological target: MAGI2_6, Q86UL8; assay: holdup assay; set-up: key: below the threshold = too weak to quantify, mostly under pKd 3.1 to 4; settings: plain residues with an end cap or a label only (N-terminal biotin on a linker: ado-ado)
Sequence (Q86UL8 1141-1229): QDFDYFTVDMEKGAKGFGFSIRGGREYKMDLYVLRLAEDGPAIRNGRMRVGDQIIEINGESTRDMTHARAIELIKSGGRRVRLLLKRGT

| Binder | pKd |
| --- | --- |
| B1 | 3.67 |

biological target: T7, NHERF3_4, Q5T2W1; assay: holdup assay; set-up: key: below the threshold = too weak to quantify, mostly under pKd 3.1 to 4; settings: plain residues with an end cap or a label only (N-terminal biotin on a linker: ado-ado)
T7 sequence (Q5T2W1 373-468, limits assumed, looked up): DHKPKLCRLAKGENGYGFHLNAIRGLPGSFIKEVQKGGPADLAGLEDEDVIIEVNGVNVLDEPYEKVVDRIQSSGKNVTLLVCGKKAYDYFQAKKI

| Binder | pKd |
| --- | --- |
| B1 | below the threshold |

biological target: AHNAK1, Q09666; assay: holdup assay; set-up: key: below the threshold = too weak to quantify, mostly under pKd 3.1 to 4; settings: plain residues with an end cap or a label only (N-terminal biotin on a linker: ado-ado)
Sequence (Q09666 4-100): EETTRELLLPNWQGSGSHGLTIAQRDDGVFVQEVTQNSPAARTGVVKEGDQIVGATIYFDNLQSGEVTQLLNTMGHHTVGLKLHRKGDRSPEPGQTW

| Binder | pKd |
| --- | --- |
| B1 | below the threshold |

biological target: T8, LNX2_2, Q8N448; assay: holdup assay; set-up: key: below the threshold = too weak to quantify, mostly under pKd 3.1 to 4; settings: plain residues with an end cap or a label only (N-terminal biotin on a linker: ado-ado)
T8 sequence (Q8N448 334-432, limits assumed, looked up): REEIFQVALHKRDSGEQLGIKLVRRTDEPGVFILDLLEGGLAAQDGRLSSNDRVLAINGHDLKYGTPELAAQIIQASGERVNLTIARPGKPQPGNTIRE

| Binder | pKd |
| --- | --- |
| B1 | 4.44 |

biological target: Inadl_1, Q8NI35; assay: holdup assay; set-up: key: below the threshold = too weak to quantify, mostly under pKd 3.1 to 4; settings: plain residues with an end cap or a label only (N-terminal biotin on a linker: ado-ado)
Sequence (Q8NI35 113-229): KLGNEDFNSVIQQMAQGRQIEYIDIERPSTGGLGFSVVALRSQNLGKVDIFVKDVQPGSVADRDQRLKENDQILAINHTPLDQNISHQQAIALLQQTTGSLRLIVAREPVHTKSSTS

| Binder | pKd |
| --- | --- |
| B1 | below the threshold |

biological target: T9, HTRA4, P83105; assay: holdup assay; set-up: key: below the threshold = too weak to quantify, mostly under pKd 3.1 to 4; settings: plain residues with an end cap or a label only (N-terminal biotin on a linker: ado-ado)
T9 sequence (P83105 378-476, limits assumed, looked up): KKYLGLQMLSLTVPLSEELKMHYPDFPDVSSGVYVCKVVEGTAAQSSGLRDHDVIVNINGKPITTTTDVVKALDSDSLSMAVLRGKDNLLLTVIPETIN

| Binder | pKd |
| --- | --- |
| B1 | 3.9 |

biological target: DLG2_2, Q15700; assay: holdup assay; set-up: key: below the threshold = too weak to quantify, mostly under pKd 3.1 to 4; settings: plain residues with an end cap or a label only (N-terminal biotin on a linker: ado-ado)
Sequence (Q15700 189-283): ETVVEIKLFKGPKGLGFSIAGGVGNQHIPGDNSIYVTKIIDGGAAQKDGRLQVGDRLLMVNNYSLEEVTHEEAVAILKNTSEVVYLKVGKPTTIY

| Binder | pKd |
| --- | --- |
| B1 | 4.58 |

biological target: Inadl_9, Q8NI35; assay: holdup assay; set-up: key: below the threshold = too weak to quantify, mostly under pKd 3.1 to 4; settings: plain residues with an end cap or a label only (N-terminal biotin on a linker: ado-ado)
Sequence (Q8NI35 1530-1615): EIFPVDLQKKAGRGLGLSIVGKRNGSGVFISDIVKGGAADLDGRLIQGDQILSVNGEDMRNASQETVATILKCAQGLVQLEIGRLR

| Binder | pKd |
| --- | --- |
| B1 | 3.54 |

biological target: T10, PTPN13_1, Q12923; assay: holdup assay; set-up: key: below the threshold = too weak to quantify, mostly under pKd 3.1 to 4; settings: plain residues with an end cap or a label only (N-terminal biotin on a linker: ado-ado)
T10 sequence (Q12923 1088-1188, limits assumed, looked up): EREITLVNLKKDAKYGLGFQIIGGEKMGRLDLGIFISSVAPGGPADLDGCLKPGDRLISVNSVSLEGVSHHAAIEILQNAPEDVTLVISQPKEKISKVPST

| Binder | pKd |
| --- | --- |
| B1 | below the threshold |

biological target: MAGI2_5, Q86UL8; assay: holdup assay; set-up: key: below the threshold = too weak to quantify, mostly under pKd 3.1 to 4; settings: plain residues with an end cap or a label only (N-terminal biotin on a linker: ado-ado)
Sequence (Q86UL8 915-1017): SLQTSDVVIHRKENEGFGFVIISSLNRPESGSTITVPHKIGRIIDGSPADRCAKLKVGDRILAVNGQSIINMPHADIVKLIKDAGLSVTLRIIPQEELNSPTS

| Binder | pKd |
| --- | --- |
| B1 | 4.12 |

biological target: T11, PDZD7_3, Q9H5P4; assay: holdup assay; set-up: key: below the threshold = too weak to quantify, mostly under pKd 3.1 to 4; settings: plain residues with an end cap or a label only (N-terminal biotin on a linker: ado-ado)
T11 sequence (Q9H5P4 857-944, limits assumed, looked up): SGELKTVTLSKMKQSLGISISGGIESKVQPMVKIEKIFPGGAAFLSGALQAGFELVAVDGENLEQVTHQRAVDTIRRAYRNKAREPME

| Binder | pKd |
| --- | --- |
| B1 | 4.63 |
